System: Escherichia coli TOP10
Experiment: shrunken log2 fold change of peptide-encoding DNA abundance (4.5 h post-induction vs induction); higher = less antimicrobial activity (less host growth inhibition)
Details: time post-induction: 4.5 h; library: site-saturation at positions 5, 18, 19, 20
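Further: peptides expressed intracellularly from a pBAD plasmid library in pooled LB shake-flask culture, induced with 0.3% L-arabinose, DNA abundance read by NGS, three biological replicates, DESeq2 with apeglm shrinkage.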

RRIRSRPPRLPRPRPRPIWAPRP and RRIRHRPPRLPRPRPRPRNKPRP are within 0.2 log units of each other in “shrunken log2 fold change” value: -0.133 for the first, -0.2 for the second.

RRIRQRPPRLPRPRPRPSSQPRP and RRIRHRPPRLPRPRPRPPYFPRP are within 0.2 log units of each other in “shrunken log2 fold change” value: -0.395 for the first, -0.366 for the second.

Compared with RRIRWRPPRLPRPRPRPNALPRP, RRIRNRPPRLPRPRPRPYIPPRP is lower in “shrunken log2 fold change” value: 0.15 for the first, -0.36 for the second.

Compared with RRIRVRPPRLPRPRPRPATGPRP, RRIRNRPPRLPRPRPRPIVIPRP is lower in “shrunken log2 fold change” value: 0.119 for the first, -0.29 for the second.

RRIRLRPPRLPRPRPRPQLWPRP and RRIRIRPPRLPRPRPRPDGNPRP are within 0.2 log units of each other in “shrunken log2 fold change” value: -0.195 for the first, -0.0425 for the second.

Going from RRIRPRPPRLPRPRPRPKWLPRP to RRIRHRPPRLPRPRPRPVTMPRP, the “shrunken log2 fold change” value falls from 0.198 to -0.513.

Compared with RRIRIRPPRLPRPRPRPYEGPRP, RRIRTRPPRLPRPRPRPGTMPRP is lower in “shrunken log2 fold change” value: -0.00931 for the first, -0.254 for the second.

Going from RRIRNRPPRLPRPRPRPHDCPRP to RRIRDRPPRLPRPRPRPADWPRP, the “shrunken log2 fold change” value rises from -0.124 to 0.305.

RRIRWRPPRLPRPRPRPWITPRP and RRIRRRPPRLPRPRPRPVKLPRP are within 0.2 log units of each other in “shrunken log2 fold change” value: -0.0174 for the first, -0.0474 for the second.

Compared with RRIRGRPPRLPRPRPRPVTNPRP, RRIRLRPPRLPRPRPRPFYLPRP is lower in “shrunken log2 fold change” value: 0.735 for the first, -0.572 for the second.

First: RRIRRRPPRLPRPRPRPNWDPRP
Second: RRIRARPPRLPRPRPRPKENPRP
The “shrunken log2 fold change” value of the first is lower: -0.0988 for the first, 0.379 for the second.

First: RRIRTRPPRLPRPRPRPRAAPRP
Second: RRIRIRPPRLPRPRPRPDEKPRP
The “shrunken log2 fold change” value of the first is higher: 0.385 for the first, -0.0762 for the second.

RRIRTRPPRLPRPRPRPGKVPRP and RRIRLRPPRLPRPRPRPKDMPRP are within 0.2 log units of each other in “shrunken log2 fold change” value: 0.145 for the first, -0.0444 for the second.

RRIRDRPPRLPRPRPRPHHQPRP and RRIRVRPPRLPRPRPRPQLMPRP are within 0.2 log units of each other in “shrunken log2 fold change” value: -0.0302 for the first, -0.224 for the second.

Going from RRIRCRPPRLPRPRPRPLYEPRP to RRIRNRPPRLPRPRPRPQHCPRP, the “shrunken log2 fold change” value rises from -0.43 to -0.065.

RRIRNRPPRLPRPRPRPYFWPRP and RRIRHRPPRLPRPRPRPKHPPRP are within 0.2 log units of each other in “shrunken log2 fold change” value: -0.0871 for the first, -0.0271 for the second.

RRIRIRPPRLPRPRPRPDWAPRP and RRIRDRPPRLPRPRPRPYGIPRP are within 0.2 log units of each other in “shrunken log2 fold change” value: -0.0489 for the first, -0.00973 for the second.

First: RRIRIRPPRLPRPRPRPQQPPRP
Second: RRIRQRPPRLPRPRPRPQFKPRP
The “shrunken log2 fold change” value of the first is higher: 0.349 for the first, -0.0321 for the second.

RRIRNRPPRLPRPRPRPGATPRP and RRIRDRPPRLPRPRPRPQLDPRP are within 0.2 log units of each other in “shrunken log2 fold change” value: 0.124 for the first, 0.207 for the second.

Going from RRIRTRPPRLPRPRPRPNERPRP to RRIRQRPPRLPRPRPRPKMWPRP, the “shrunken log2 fold change” value rises from -0.0561 to 1.

Compared with RRIRGRPPRLPRPRPRPNIDPRP, RRIRSRPPRLPRPRPRPELAPRP is higher in “shrunken log2 fold change” value: 0.644 for the first, 0.929 for the second.

RRIRTRPPRLPRPRPRPTMMPRP and RRIRIRPPRLPRPRPRPFFFPRP are within 0.2 log units of each other in “shrunken log2 fold change” value: -0.14 for the first, -0.0692 for the second.

Going from RRIRGRPPRLPRPRPRPAGRPRP to RRIRRRPPRLPRPRPRPNTQPRP, the “shrunken log2 fold change” value falls from 0.692 to 0.0214.

RRIRDRPPRLPRPRPRPMLYPRP and RRIRLRPPRLPRPRPRPHKLPRP are within 0.2 log units of each other in “shrunken log2 fold change” value: -0.0839 for the first, -0.1 for the second.

Compared with RRIRIRPPRLPRPRPRPNEQPRP, RRIRIRPPRLPRPRPRPGPEPRP is higher in “shrunken log2 fold change” value: 0.0369 for the first, 0.342 for the second.

Compared with RRIRNRPPRLPRPRPRPFVTPRP, RRIRKRPPRLPRPRPRPMQVPRP is higher in “shrunken log2 fold change” value: -0.274 for the first, 0.175 for the second.

First: RRIRYRPPRLPRPRPRPFFKPRP
Second: RRIRLRPPRLPRPRPRPTYPPRP
The “shrunken log2 fold change” value of the first is lower: -0.518 for the first, 0.0515 for the second.

RRIRNRPPRLPRPRPRPQYTPRP and RRIRRRPPRLPRPRPRPGTFPRP are within 0.2 log units of each other in “shrunken log2 fold change” value: -0.737 for the first, -0.578 for the second.

RRIRNRPPRLPRPRPRPIWDPRP and RRIRLRPPRLPRPRPRPSTQPRP are within 0.2 log units of each other in “shrunken log2 fold change” value: -0.14 for the first, -0.337 for the second.

RRIRHRPPRLPRPRPRPNDGPRP and RRIRDRPPRLPRPRPRPIRNPRP are within 0.2 log units of each other in “shrunken log2 fold change” value: -0.134 for the first, 0.011 for the second.

RRIRVRPPRLPRPRPRPWWCPRP and RRIRERPPRLPRPRPRPRDLPRP are within 0.2 log units of each other in “shrunken log2 fold change” value: -0.0966 for the first, 0.023 for the second.

Compared with RRIRNRPPRLPRPRPRPDITPRP, RRIRLRPPRLPRPRPRPLIFPRP is lower in “shrunken log2 fold change” value: -0.0553 for the first, -0.656 for the second.

Going from RRIRERPPRLPRPRPRPAAIPRP to RRIRERPPRLPRPRPRPTAAPRP, the “shrunken log2 fold change” value rises from -0.215 to 0.456.

RRIRDRPPRLPRPRPRPMCDPRP and RRIRNRPPRLPRPRPRPTGRPRP are within 0.2 log units of each other in “shrunken log2 fold change” value: 0.0645 for the first, 0.0525 for the second.

First: RRIRRRPPRLPRPRPRPVHNPRP
Second: RRIRIRPPRLPRPRPRPDDCPRP
The “shrunken log2 fold change” value of the first is higher: 0.0641 for the first, -0.271 for the second.

Compared with RRIRGRPPRLPRPRPRPDNIPRP, RRIRERPPRLPRPRPRPPLSPRP is lower in “shrunken log2 fold change” value: 0.119 for the first, -0.212 for the second.

RRIRVRPPRLPRPRPRPHFCPRP and RRIRLRPPRLPRPRPRPGIQPRP are within 0.2 log units of each other in “shrunken log2 fold change” value: -0.0628 for the first, -0.0773 for the second.

With RRIRNRPPRLPRPRPRPDAPPRP the “shrunken log2 fold change” value was 0.185.

From the supplement of paper PMC9112550, “Optimization of the antimicrobial peptide Bac7 by deep mutational scanning” (BMC Biology, 2022)
